Assay results reported in a protein production outcome set (Wang et al. 2014).

Experiment: label from the status in PepcDB records
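Note: failed if final PepcDB status was selected cloned or expressed and not failed if soluble or beyond.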

Sequence | protein production
MLINKTKRAEQNLNNLPFLALQAEQIEFLGSSAEFKTQIIELIRNAKKRIYVTALYWQKDEAGQEILDEIYRVKQENPHLDVKVLIDWHRAQRNLLGAEKSATNADWYCEQRQTYQLPDDPNMFFGVPINTREVFGVLHVKGFVFDDTVLYSGASINNVYLHQFEKYRYDRYQKITHAELADSMVNFINDYLLDFSAVYPLDVTNRPRTKEIRGNIRAYRKDLAQNGEYSLKSAVKLPNVLSVSPLFGLGASGNELNQVIEDLFLQVQKKLVICTPYFNFPRTLQHKIATLLENGKRVEIIVGDKVANDFYIPPEQPFKMAGALPYLYESNLRRFCEKFETQIESGQLVVRLWRDGDNTYHLKGVWVDDRYILLTGNNLNPRAWRLDAENGLLIYDPQQQLLAQVEKEQNQIRQHTKVLKHYTELEELNQYPEPVQKLLKKFARIKADKLVKMILLEHHHHHH | not failed
MVRVDQNLFNEVMYLLDELSQDITVPKNVRKVAQDSKAKLSQENESLDLRCATVLSMLDEMANDPNVPAHGRTDLYTIISKLEALS | not failed
MLPNLNRIPQVEQYVLDYLDDLQCQHFEGDIATNYADRLSLATDNSVYQQLPQAILFPKTVADIVRITKLANLPEYQSISFTPRGGGTGTNGQSINNNIIVDLSRHMTA | failed
MPERINKMKIIAFYLPQFHNIPENDEWWGDGFTEWVNVKKAKPIFDGHNQPRVPLNHNYYNLLDDDVKIWQADLAKKYGVYGFCYYHYWFDGKLLLEKPMEQMLENKKVDIPFCICWANEPWTRAWVGETKTLIPQKYGSKKEWKEHFDYLLPFFKDPRYILDEGKPLVVIYRPEIIDVLNDMLDYWNELAKNAGFEGLKFAYQSAGMDELPKNKRNDSRFDYDIEFQPAYAFTKLNKNTLPVLRKIKKVVSDFVEKRTGLTLRFIGSGKVAALNRVDYDKAWETILNTTPESIINVPGAFVDWDNTPRHGERGRVYIGKTPEKFEKYLSEQIRRAKNVYHKDMIFMYAWNEWAEGGYLEPDQTSGYAYLEAIKKALDENGENPWQH | failed
MSQKQEEENPAEETGEEKQDTQEKEGILPERAEEAKLKAKYPSLGQKPGGSDFLMKRLQKGQKYFDSGDYNMAKAKMKNKQLPSAGPDKNLVTGDHIPTPQDLPQRKSSLVTSKLAGGQVE | failed
MVVADGHDLQESPLRWIPFLAVFLYVYIEISIFIQVAHVLGVLMTLILVIFTSVIGMSLVRNQGFKNFLLMQQKMAAGESPAAEMIKSVSLIIAGLLLLLPGFFTDFLGLLLLLPPVQKHLTLKLLPHLRFSRMPGGGFSAGTGGGETFDGEYQRKDDDRDRIEHKDDRRD | failed
MSLKYKLIVLDLDGTLTNSKKEISSRNRETLIRIQEQGIRLVLASGRPTYGIVPLANELRMNEFGGFILSYNGGEIINWESKEMMYENVLPNEVVPVLYECARTNHLSILTYDGAEIVTENSLDPYVQKEAFLNKMAIRETNDFLTDITLPVAKCLIVGDAGKLIPVESELCIRLQGKINVFRSEPYFLELVPQGIDKALSLSVLLENIGMTREEVIAIGDGYNDLSMIKFAGMGVAMGNAQEPVKKAADYITLTNDEDGVAEAIERIFNVEGHHHHHH | not failed
MARVTVMIPTQRRPDGLAVAARSVFGQVGVDFAELELVIVDNDQVPSAKPVADALRKGAPCPVIYVNEKRPGVAFARNAGMARASGDFIAFLDDDEEAPSGWLAALLAAQERYDADVVFGPVKARAPAHIDQHRDYLERFFSRIGPAQAGVIDYHYGCGDSLIRRSALPDPVAPFAVERNFIGGEDDLLFGHMGAAGKRFAWEPAAWVWEDPVPSRLNLGYTIQRAFAYGQGPSAHCAAAEPRDNLGVARWMLIGVGQAAVFGLVAAVKWAVRAKDRAEWLDRAARGLGKTFWWGPFKIQFYGRTA | failed
MPTLEMPVAAVLDSTVGSSEALPDFTSDRYKDAYSRINAIVIEGEQEAHDNYIAIGTLLPDHVEELKRLAKMEMRHKKGFTACGKNLGVEADMDFAREFFAPLRDNFQTALGQGKTPTCLLIQALLIEAFAISAYHTYIPVSDPFARKITEGVVKDEYTHLNYGEAWLKANLESCREELLEANRENLPLIRRMLDQVAGDAAVLQMDKEDLIEDFLIAYQESLTEIGFNTREITRMAAAALVS | not failed
MMAAREQRSFRQLSLLRQFEGQSLLCASMNIPGPIKCSESLNKTFQSIINLVKEDLRGRIIFEREVHQKTGWEYYCLSDLPVSELKTKMIAIETKISIGRLMDLDVLHLVNGIPQPISRQELGFPRRQCYICQNDAKVCSRSRKHSVIEMQEAIAKFIKINH | failed
MGHHHHHHSHMSTSLTGKPGALPANLDDMKVAELKQELKLRSLPVSGTKTELIERLRAYQDQISPVPGAPKAPAA | failed
MRCMSDDHTHVQEFFEARAADWDSRFPDDGPAHAAAVAELGLREGDRVLDAGCGTGRALPSLRAAVGSSGVVVGVDLTPAMLAAAARAGRGRDGHLLLADVTRLPLGTESLDAVFAAGLIAHLPEPAENLRELARVVRAGGTLALFHPIGRAALAARQGRQITPDDLRAEANLGPLLAGSGWRMTSYVDEDARFLALAVRVKLEHHHHHH | failed
MIKSSLPPILTSQIGPDSIELRLLVAADLEYFNGHFPEQAVLPGVTQLDWAVRLGCEHFGYSAAVANLEVLKFQQLILPGQEVTLVISHNATKEKLTFAYSDGDHRYASGRISFASKQDDGAAQ | failed
MSELNKEMTLLPPPELVQYVGGDFKKVGKEFLKHFIQIGALKSNEKVLDVGCGVGRMAVPLMNYLNDDGAYYGFDLFKDGITWCQNNISTMRNNFHFEHVDIYNQFYNPEGKEDASQYRFPYEDGTFDFIFLTSVFTHLLPKELEHYVSEIVRVLKKDGRCFITFFLINPESSYYLNAGQSTLGFYHRIENCYVVNKDIPNFAVAYPETDICNLLNKYGLEIINKPHYGLWCGRHEYTSYQDIVLTKKSFLEHHHHHH | not failed
MVDFIRRIQISCVVSLTDSRHQRRTKSHHHPLNPPNPVAESRKRSKGKQKEKVNNMVLFDQATYDKLMSEAPKFKLITPSILSDRLRINGSLARKAIRDLMVKGTIRMVSTHSSQQINTRATCLT | failed
MSAPQVWPWTNQTPPLKGDPTPEPKPQERPTRLKHPLDAPHSVYGVDKWGKGLIVVTEEGEIGLKNPLRPEADAVSLPGILHDLEQRGIRAPMILRISSYLENEICHINDSFADAIARSGYKGAYRGVFPIKVNQQAQVIDRIVEFGHRYSYGLEAGSKPELVIALAHKLATDALIVCNGVKDAEFVRLAILSRKLGFNTVIVLESPKEADTVIAVYEELGIEPLLGVRVKLTNQISGKWEESSGDRSSFGMNTDQLVRVVDKLRDAGLIHCLKLQHSHLGSQVPDVNDVRRAVGEACRYFTELSAEGVPLTHLDLGGGMGVDYTGEKRATENSINYTVEEYCANVVETVAYAMDEAGIDHPTIVTESGRAVVATSSLLVFNVLESTLYDAPTAPGTEPDDHHLVSDLAAVNGYLTPARLQECWNDATFYRNELRALFRRGYVDLRQMARAERIYLSLMARIKTMVAEVEAETDLDAQMEKIADIYHCNFSLFQSLPDVWAIDQLHPIVPLQMLNEAPDRRAVLSDITCDSDGKVDRFILADGVSPSLPVHSLPEDQDYYLGVFFVGAYQETLGDLHNLFGDTNVVTIDLRADGGFDLLHEQEGDTISEVLSYVEYDPADCVAAFRKLVDGAISNGCLKASERKLIIGAYRDSINGYTYYE | failed
MTPPPAPKTPSTLLRRHLGRAVGAAYLAAATAPGPGMWLRHPHRIAVVGLPDLSLNTAPFLLSLVLFTAGLQVPPRDLGRLVGRPAALLTGLALHLLAPLLIVPGVAFALRQSPDSDGGSGLVAAMILVVAMPVAAGATVWTGAGEGDQSTTVGLVLASTLASPLTVPFTVTALCPLLSADYADTLAGAARIAGSGFALTGVVLPCAAGLVARLALPRRALDALLHAAVPTAALGSLLLTYVNASGVLGPFLTRPRPVLLAAALAVAATVCGLSFALGRITARVLRLDAHAGASVTLACGMNNSSASAVLITTALPDRPQVLLPVLAYGLLQKVAAGRVVRGGHHSGRGA | failed
MKLTDRLLKIASLVSDGKKIADIGTDHGYIPVYLLKEGKVPFAVLADVNKGPLDNAHKEVIQNNLLDKVDLRLGSGIEILEIGEVEEVIIAGMGGILISELLEAKKEVAHNVEKLILQPMQAQEELRYYLLNNGYEILEEVLVREDFRIYEIIVAKYTGKNTIIEDEIYYEVGIKLLENKDSLFNDFIEKKIKTYSSIVNKLEGKNGEAIDKKRKESEVAIKKLENLIK | not failed
MSLDCRERIEKDLELLEKNLMEMKSIKLSDDEEAVVERALNYRDDSVYYLEKGDHITSFGCITYAHGLLDSLRMLHRIIEGHHHHHH | not failed
MAAPLRIQSDWAQALRKDEGEAWLSCHPPGKPSLYGSLTCQGIGLDGIPEVTASEGFTVNEINKKSIHISCPKENASSKFLAPYTTFSRIHTKSITCLDISSRGGLGVSSSTDGTMKIWQASNGELRRVLEGHVFDVNCCRFFPSGLVVLSGGMDAQLKIWSAEDASCVVTFKGHKGGILDTAIVDRGRNVVSASRDGTARLWDCGRSGCLGVLADCGSSINGVAVGAADNSINLGSPEQMPSEREVGTEAKMLLLAREDKKLQCLGLQSRQLVFLFIGSDAFNCCTFLSGFLLLAGTQDGNIYQLDVRSPRAPVQVIHRSGAPVLSLLSVRDGFIASQGDGSCFIVQQDLDYVTELTGADCDPVYKVATWEKQIYTCCRDGLVRRYQLSDL | failed
MLTVKQRETDCPMDLNTLISQYGYAALVIGSLAEGETVTLLGGVAAHQGLLKFPLVVLSVALGGMIGDQVLYLCGRRFGGKLLRRFSKHQDKIERAQKLIQRHPYLFVIGTRFMYGFRVIGPTLIGASQLPPKIFLPLNILGAFAWALIFTTIGYAGGQVIAPWLHNLDQHLKHWVWLILVVVLVVGVRWWLKRSGKKKPDHQA | failed
MRKNKLSFKEKAGAEQEECLCFCEGEASREAMFQAPIELPEGFVVDPAEAVANVTWNADSLSCVSDRCLIQTGPEPDEVGVQFAVRLQGTVTLLVSVSPVRNQYGQGDGAVSVIHNAEIDQVVYYSDESDDCPDISDITIENLVVVPPFYGSPLSVTGTIVLVPEPEPVYAFTANPNDQSVSVIDTNTDTVVTTIALPYNPAGIEITPDKSAVFVLHPNNNVISVIDYDTLTVTATILLDQPPRLIRFIPNHEFAYVFTGTAVYVIGIDTLTVDRSIPVEGYDVAIDPNGLFAYVLNFGIVQKVDLTTGEVTGTIERELIVSTIETNWPERYAYVLEQEFFFNYLTVIDLNTFTISSTQELEYEGEYRMFTSGAEVYLYDGFTGNLYSVSPNGAGVIGNVPQSATDYAFTPNGDFLYATRFIEQSIIVYNTDDYSEETVISLGVSPGAITILEHHHHHH | not failed
MIMRQLAHFKFFDTLSKKMVAGFIILILIGTVLLSLPWATPANVHTSLIDVLFTSASATCITGLTVVNTAAHWTTFGQLVILVLSEVGALGYMTFAVLLFNIMRRQIGLSTQLMVKASLNLERLSDTKSVMKYVVGLSLLFQLGGLGLLAIDFVPRFGWRHGLYVSLYHAVMSFCNAGFDVFGDSLQGFRNDPYVLTVTMILIIAGGLGFLVWRDVLLYHTRKRLTLNSKLTLLTTFSLFVIGFVLLLITERDLELLPTGMSWVNRTINTLFLSVTPRTAGLITMPTQGLQAGSLLVIMILMFVGGTPGSTAGGIKTTTFGVLMFQSIAQLRGRRDVEFSHRRFSQENINRALMLIFLASIVLTVATLILTQTEKIPKGFGLEYVLFEVLSAFGTVGLSLGLTPNLTLIGKIVIMMLMFIGRVGIFTSLYALSRRQARVNLIRYPAENILIG | failed
MVYWEYKINQTRRVMKNLKFQSVFDIIGPVMVGPSSSHTAGAVRIGKIVSAIFGDAPTEVEFQLFNSFAKTYRGHGTDVALVAGILGMETDDPDIPHALDIAHEKGIKVYWKINKDSKAPHPNTTRITLKNATKTISATGISIGGGNIQVTELNGF | not failed
MSVLVVGGDEITPIKAVLENLGCKDITHWDGRRESINRKNIPQNTECLVLLTNFLNHNTMKKFRGEAKKRNIPVVCSKRSVSCLYCEYCKIFGEAAAKNCPLNSFELEHHHHHH | failed
